Measurements reported in PMC7010293.
“And” between values parts separate entries of the source, which are not always exact repeats. Identical values can stand only once.

Experiments:
Test in all cases: SDS-PAGE under unheated, non-reducing conditions with Western blot
[1] = target: recombinant non-structural protein 1 (rNS1) of Dengue virus serotype 1, 6xHis-tagged (Dengue virus 1, Hawaii A strain)
[2] = target: recombinant non-structural protein 1 (rNS1) of Dengue virus serotype 2, 6xHis-tagged (Dengue virus 2, New Guinea C strain)
[3] = target: recombinant non-structural protein 1 (rNS1) of Dengue virus serotype 3, 6xHis-tagged (Dengue virus 3, Sri Lanka strain)
[4] = target: recombinant non-structural protein 1 (rNS1) of Dengue virus serotype 4, 6xHis-tagged (Dengue virus 4, TC25 strain)
[5] = target: recombinant non-structural protein 1 (rNS1) of Tick-borne encephalitis virus, 6xHis-tagged (Tick-borne encephalitis virus, Neudoerfl strain)
[6] = target: recombinant non-structural protein 1 (rNS1) of West Nile virus, RQ10NK, 6xHis-tagged (West Nile virus, NY99 strain)
[7] = target: recombinant non-structural protein 1 (rNS1) of Zika virus, 6xHis-tagged (Zika virus, SPH2015 strain)

## recombinant non-structural protein 1 (rNS1) of Dengue virus serotype 1, 6xHis-tagged (natural protein)
[1]
  stoichiometry N: 2

## recombinant non-structural protein 1 (rNS1) of Dengue virus serotype 2, 6xHis-tagged (natural protein)
[2]
  stoichiometry N: 2

## recombinant non-structural protein 1 (rNS1) of Dengue virus serotype 3, 6xHis-tagged (natural protein)
[3]
  stoichiometry N: 2

## recombinant non-structural protein 1 (rNS1) of Dengue virus serotype 4, 6xHis-tagged (natural protein)
[4]
  stoichiometry N: 2

## recombinant non-structural protein 1 (rNS1) of Tick-borne encephalitis virus, 6xHis-tagged (natural protein)
[5]
  stoichiometry N: 2 and 6

## recombinant non-structural protein 1 (rNS1) of West Nile virus, RQ10NK, 6xHis-tagged (natural protein)
[6]
  stoichiometry N: 2

## recombinant non-structural protein 1 (rNS1) of Zika virus, 6xHis-tagged (natural protein)
[7]
  stoichiometry N: 2
